Assay results reported in patent US7517949B2, “Livin-derived peptides, compositions and uses thereof” (Hadasit Medical Research Services & Development Ltd., priority 2003, dated 2009).
“Also recorded” adds a separate entry of the source. Residues, ends and D or L forms follow the SMILES beside them. *: point of attachment. Cbz = O=C(OCc1ccccc1)*; CH2F = FC*

B1: p30-Livin α: Livin α-derived peptide, cleavage product, C-terminal subunit of about 30 kDa with BIR and RING domains (protein, listed as Homo sapiens)
chain: GQILGQLRPLTEEEEEEGAGATLSRGPAFPGMGSEELRLASFYDWPLTAEVPPELLAAAGFFHTGHQDKVRCFFCYGGLQSWKRGDDPWTEHAKWFPSCQFLLRSKGRDFVHSVQETHSQLLGSWDPWEEPEDAAPVAPSVPASGYPELPTPRREVQSESAQEPGGVSPAEAQRAWWVLEPPGARDVEAQLRRLQEERTCKVCLDRAVSIVFVPCGHLVCAECAPGLQLCPICRAPVRSRVRTFLS
B2: p28-Livin β: Livin β-derived peptide, cleavage product, C-terminal subunit of about 28 kDa with BIR and RING domains (protein, listed as Homo sapiens)
chain: GQILGQLRPLTEEEEEEGAGATLSRGPAFPGMGSEELRLASFYDWPLTAEVPPELLAAAGFFHTGHQDKVRCFFCYGGLQSWKRGDDPWTEHAKWFPSCQFLLRSKGRDFVHSVQETHSQLLGSWDPWEEPEDAAPVAPSVPASGYPELPTPRREVQSESAQEPGARDVEAQLRRLQEERTCKVCLDRAVSIVFVPCGHLVCAECAPGLQLCPICRAPVRSRVRTFLS
B3: Livin α: full-length Livin isoform α, IAP family member, about 39 kDa (protein, listed as Homo sapiens)
chain: MGPKDSAKCLHRGPQPSHWAAGDGPTQERCGPRSLGSPVLGLDTCRAWDHVDGQILGQLRPLTEEEEEEGAGATLSRGPAFPGMGSEELRLASFYDWPLTAEVPPELLAAAGFFHTGHQDKVRCFFCYGGLQSWKRGDDPWTEHAKWFPSCQFLLRSKGRDFVHSVQETHSQLLGSWDPWEEPEDAAPVAPSVPASGYPELPTPRREVQSESAQEPGGVSPAEAQRAWWVLEPPGARDVEAQLRRLQEERTCKVCLDRAVSIVFVPCGHLVCAECAPGLQLCPICRAPVRSRVRTFLS
B4: Livin β: full-length Livin isoform β, IAP family member, about 37 kDa (protein, listed as Homo sapiens)
chain: MGPKDSAKCLHRGPQPSHWAAGDGPTQERCGPRSLGSPVLGLDTCRAWDHVDGQILGQLRPLTEEEEEEGAGATLSRGPAFPGMGSEELRLASFYDWPLTAEVPPELLAAAGFFHTGHQDKVRCFFCYGGLQSWKRGDDPWTEHAKWFPSCQFLLRSKGRDFVHSVQETHSQLLGSWDPWEEPEDAAPVAPSVPASGYPELPTPRREVQSESAQEPGARDVEAQLRRLQEERTCKVCLDRAVSIVFVPCGHLVCAECAPGLQLCPICRAPVRSRVRTFLS

What was measured:
[1] = tested on: Livin cleavage in Jurkat cells; assay: Livin cleavage in Jurkat cells pre-incubated with caspase inhibitors (Western blot); format: cell-based, human; settings: Jurkat cells pre-incubated with inhibitor prior to treatment
Procedure: FIG. […]
Whole cell lysates were prepared using lysis buffer (Tris-HCl 20 mM, EDTA 2 mM, β-2-Mercaptoethanol 6 mM, NP-40 1%, SDS 0.1%). Protease inhibitors included: PMSF 1 mM, Protease inhibitor cocktail (Sigma) diluted 1:10, and Complete inhibitor cocktail (Roche, Germany) diluted 1:25. About 0.25-1×10^6 cells were lysed in a total volume of 100 μl, incubated at 4° C. for 20 minutes with vigorous vortexing. Protein content was assessed by Bradford assay (Bio-Rad, Germany), according to the manufacturer's instructions. Samples were resolved on a 10% Bis-Tris pre-cast gel, following the manufacturer's instructions (Invitrogen, USA). After transferring the gel to a PVDF membrane (Millipore, Mass. USA), the membrane was exposed to the antibodies in blocking solution (PBS 1% Casein, 0.05% Tween 20) for 1 hour, followed by three 5-minute washes with PBS. The monoclonal antibody against Livin (clone:88C570) was purchased from Imgenex, and diluted 1:3000 in blocking solution. Survivin 6E4 monoclonal antibody was used according to the manufacturer's recommendation. […]
Cells were incubated with caspase inhibitors for 1-2 hour prior to treatment with the apoptotic stimuli. […] Caspase 9 activity was assessed using caspase-9 colorimetric substrate LEHD-pNA (Biovision, Calif., USA). […]

721.221 cells = assay: Apoptosis of stably transfected 721.221 cells after anti-CD95/Fas treatment (nuclear morphology, acridine orange); format: cell-based; settings: 0.1 μg/ml anti-CD95/Fas antibody, 18 hours, compared with wild type 721.221 cells
Procedure: FIG. 6a: 721.221 cells stably expressing either Livin α or […], and wild type 721.221 cells, were treated with 0.1 μg/ml anti-CD95/Fas antibody for 18 hours. Nuclear morphology was visualized using acridine orange staining and used for determining apoptosis rate.
(§1) Transfection with the pIRES2-EGFP plasmid (QIAGEN, Germany) encoding p30-Livin α or p28-Livin β, and as positive controls, the full length wild type cDNA of either Livin α or β was done either by electroporation, in 721.221 cells [Mandelboim, O. et al. (1996) J. Exp. Med., 184: 913-922], or using PolyFect (QIAGEN), in human embryonic kidney 293T cells, according to manufacturers instructions. […] Thus, cells transfected with this plasmid may be monitored for transfection by the absence or presence of the GFP signal.
(§2) Nuclear morphology was visualized using acridin orange (Sigma) staining as described [Loo, D. T. et al. (1998) Methods Cell Biol., 57: 251-264]. […] The percentage of apoptotic to viable cells was counted by fluorescence microscopy and 500 cells were scored for each sample. […] Cells transfected with a GFP-containing plasmid were analyzed using Annexin-V-Cy5 and PI staining according to the manufacturer instructions (MBL, Japan). In stably transfected cultures with a rate of GFP-positive cells higher than 95%, all cells were analyzed for apoptosis. […]

293T cells = assay: Spontaneous apoptosis of transiently transfected 293T cells (Annexin V/PI flow cytometry of GFP-positive cells); format: cell-based, human; settings: 24 hours post-transfection, in comparison to full-length proteins or empty vector
Procedure: FIG. 6c: 293T cells were transiently transfected with the indicated plasmids. 24 hours post-transfection, cells were harvested and analyzed by flow cytometry. Apoptosis of GFP-positive cells was analyzed by Annexin-V/PI stain.
as §1, §2

LB33 Mel A1 cells = assay: Cell death of transiently transfected LB33 Mel A1 cells (PI stain of GFP-positive cells); format: cell-based, human; settings: data not shown; for induction of apoptosis by transient transfection: in comparison to full-length counterparts or control
Procedure: At the indicated times post transfection cells were analyzed for GFP percent as a marker of transfection, and the GFP-positive population was further analyzed for cell death using PI stain.

Jurkat cells [2] = assay: Protection of Livin-expressing cells from drug-induced apoptosis; format: cell-based, human
Procedure: Primary cultures of melanoma cells were tested for the expression of Livin, XIAP and Survivin. XIAP and Survivin were widely expressed in most of the melanoma samples tested. On the other hand, Livin was expressed at variable levels, in 10 out of the 27 melanoma samples.
To further explore the cleavage of each isoform, retroviral infection to establish a Jurkat T-cell Leukemia/Lymphoma cell line and an EBV-transformed B cell line 721.221, expressing high, stable levels of either Livin α or β were used. […] A panel of the three drugs etoposide, staurosporine, and anti-CD95/Fas ligand was thus used to induce apoptosis in the transfected Jurkat and 721.221 cells. Similar results were observed when cells were treated with anti-CD95/Fas antibody (data not shown). The correlation between the timing of the cleavage and apoptosis rate was further investigated.

Jurkat cells [3] = settings: cited from earlier work

Molecule	cleavage of Livin [1]	rate of apoptosis following anti-CD95/Fas treatment (721.221 cells)	rate of spontaneous apoptosis (293T cells)	induction of apoptosis by transient transfection (LB33 Mel A1 cells)	also measured
CC[C@H](C)[C@H](NC(=O)[C@H](CCC(=O)O)NC(=O)[C@@H](NC(C)=O)C(C)C)C(=O)N[C@H](C=O)CC(=O)O [caspase 6 inhibitor] (Ac-VEID-aldehyde)	not	–	–	–	–
COC(=O)C[C@H](NC(=O)[C@H](C)NC(=O)[C@@H](NC(=O)OCc1ccccc1)C(C)C)C(=O)CF [zVAD-FMK] (Cbz-Val-Ala-Asp(OMe)-CH2F)	significantly diminished the cleavage of Livin	–	–	–	–
B1	–	gained significant pro-apoptotic activity; also recorded: much higher rate of apoptosis	significantly higher rate of spontaneous apoptosis	sufficient to induce apoptosis	–
B2	–	–	significantly higher rate of spontaneous apoptosis	sufficient to induce apoptosis	rate of apoptosis, p28-Livin β relative to p30-Livin α (LB33 Mel A1 cells; all time points tested): more potent pro-apoptotic agent than p30-Livin α; also recorded: much higher rate of apoptosis than p30-Livin α
B3	–	lower rate of apoptosis	–	–	protection from staurosporine-induced apoptosis (Jurkat cells [2]): can protect from staurosporine-induced apoptosis; protection against anti-CD95/Fas antibody-induced apoptosis (Jurkat cells [3]; inventors' previous work (Ashhab 2001)): able to protect from apoptosis
B4	–	–	–	–	protection against other chemotherapeutic agents (Jurkat cells [2]; Jurkat cells, Daunorubicin, Fludarabine and Cytosine arabinoside, unpublished data): protect Jurkat cells; inhibition of etoposide-induced apoptosis (Jurkat cells [3]; previously demonstrated by the inventors (Ashhab 2001)): inhibit etoposide-induced apoptosis; also recorded: can only block etoposide-induced apoptosis
